Where “and” joins values, the source holds several entries; their conditions need not be identical. Identical values can stand only once.
Target: Mayaro virus (MAYV) capsid (C) protein, strain IQT4235 (Mayaro virus, strain IQT4235)
Assay: cryo-EM structure

Mayaro virus (MAYV) capsid (C) protein, strain IQT4235 (natural protein)
stoichiometry N: 6 and 5
